In the nanobody polyreactivity screen of Harvey et al. (2022):

Assay: yeast display, Sf9 membrane polyspecificity reagent, FACS + sequencing; frameworks hold sequencing errors
Outline: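 Nanobodies from a synthetic yeast display library (Saccharomyces cerevisiae BJ5465), induced 36–48 hours with galactose, were stained 1 hour at 4 °C with 10% biotinylated, detergent-solubilized Sf9 membrane reagent, enriched on streptavidin microbeads, then FACS-sorted. Anti-HA (expression) and streptavidin (reagent binding) fluorescence set low and high (top ~1%) gates. Polyreactivity labels come from the gate of origin. Genes were colony-PCR amplified, MiSeq 2 × 250 sequenced and filtered by CDR length.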

In the case of “QVQLVETGGGLVQAGGSLRLSCAASGITFYYYAMGWYRQAPGKERELVAAINSGGITNYADSVKGRFTLSRDIAKKTVYLQMNSLKPEDTAVYYCAASSGFRYRYGYWGQGTQVTVSS”, the “polyreactivity (PSR sort gate)” value was “high polyreactivity”.

In the case of “QVQLVETGGGLVQAGGSLRLSCAASGRIFGPNSKGWYRQAPGKEREFVASIRYSGGSTYYADSVKGRFTISRDYAKNTVYLQMHSLKPEDTAVYYCAARTVTLSYLYYYWGQGTHVTVSS”, the “polyreactivity (PSR sort gate)” value was “high polyreactivity”.

For “QVQLVETGGGLVQAGGSLRLSCAASGRIFQWYAMGWYRQAPGKERELVAAINNGGSTNYADSVKGRFTISRDNAKNTVYLQMNSLKPEDTAVYYCAAELTFVAQGWFVTYDYWGQGTQVTVSS”, the “polyreactivity (PSR sort gate)” value was “high polyreactivity”.

For “QVQLVETGGGLVQAGGSLRLSCAASGRIFRGNTMGWYRQAPGKERELVAAISWRGGRTYYADSVKWRFTISRDNAKNTVYLQMISLKPEDTAVYYCNAVYFQTGVYGYGDYDSWGQGTQVTVSS”, the “polyreactivity (PSR sort gate)” value was “low polyreactivity”.

In the case of “QVQLVETGGGLVQAGGSLRLSCAASGRIFRNNAMGWYRQAPGKERELVAGISSGGSTYYADSVKGRFTMSRDNAKKTVYLQMNNLKPEDTAVYFFAVVGSAYQSRYDYWGQGNQVTVSS”, the “polyreactivity (PSR sort gate)” value was “high polyreactivity”.

In the case of “QVQLVETGGGLVQAGGSLRLSCAASGRIFVVYDMGWYRQAPGKERELVANITISGGRTYYADSVKGRFTISRDNAKNTVYLQMNSLKPEDTAVYYCAATSGALYYGYEYWGQGTQVTVSS”, the “polyreactivity (PSR sort gate)” value was “low polyreactivity”.

With “QVQLVETGGGLVQAGGSLRLSCAASGRIFYYKAKGWYRQAPGKERELVASISWDASSTYYADSVKGRFTISRDNAKNTVYLQMNSLKPEDTAVYYCNIKHLYRQYDYWGQGTQVTVSS” the “polyreactivity (PSR sort gate)” value was “low polyreactivity”.

With “QVQLVETGGGLVQAGGSLRLSCAASGRIFYYNAMGWYRQAPGKERELVAAITGSGGSTYYADSVKGRFTISRDNEMNTVYLQMNSLKPEDSAVYYCAAVNPYIRGRYDYWGQGTQVTVSS” the “polyreactivity (PSR sort gate)” value was “high polyreactivity”.

For “QVQLVETGGGLVQAGGSLRLSCAASGRTFHYNVMGWYRQAPGKERELVAAITNTGGSTYYADSVKGRFTISRDNAKNTVYLQMNSLKPEDTAVYYCAAVETLPFDWYYWRYDYWGQGTQVTVSS”, the “polyreactivity (PSR sort gate)” value was “low polyreactivity”.

With “QVQLVETGGGLVQAGGSLRLSCAASGRTFNVNVKGRYRQAPGKERELVAAINRRGNTYYADSVKGRFTISRDNAKNTVYLQMNSLKPEDTAVYYCAADYRRYGSYDYWGQGTQVTVSS” the “polyreactivity (PSR sort gate)” value was “low polyreactivity”.

With “QVQLVETGGGLVQAGGSLRLSCAASGRTFWTNAMGWYRQPPGKEREFVAAISWRGASTFYADSVKWRFTISRDNAKNTVYLQMNSLIPEDTAVFYCAAQSRTRSFYGKYDSWGQGNQVTVSS” the “polyreactivity (PSR sort gate)” value was “low polyreactivity”.

In the case of “QVQLVETGGGLVQAGGSLRLSCAASGRTISVNAMVWYIQAPGKESELVAAISSGGGTNYADSVKGRFTISRDNAKNTVYFQMNSLKPEDTAVYYCAADSRPGKYYEDDYWGQGTQVTVSS”, the “polyreactivity (PSR sort gate)” value was “low polyreactivity”.

In the case of “QVQLVETGGGLVQAGGSLRLSCAASGSIAFNAMGWYTQAPGKERELVAAITWRVGSTYYADSVKGRFTISRDNAMNTVDLQMHSLKTEDTAVYYCAARRTAGAYYGYNYWGQGTQVTVSS”, the “polyreactivity (PSR sort gate)” value was “high polyreactivity”.

With “QVQLVETGGGLVQAGGSLRLSCAASGSIFDGYAMGWYRQAPGKERDFVASIRFSTARTYYADSVKGRFTISRDNAKNTVYLQMNSLKPEDTAVYYCNAPQGFVWRYSSWGPYDYWGQGTQVTVSS” the “polyreactivity (PSR sort gate)” value was “high polyreactivity”.

In the case of “QVQLVETGGGLVQAGGSLRLSCAASGSIFYRYAMGWYRQAPGKEREMVAAIRTRGGTYYADSVKGRFTISRDNAKNTVYLQMNSLKPEDTAVYYWNAVVPGCTAVDYDYWGQGTQVTVSS”, the “polyreactivity (PSR sort gate)” value was “high polyreactivity”.

For “QVQLVETGGGLVQAGGSLRLSCAASGSIFYTNAMGWYRQAPGKERELVAVITASGGSTYYADSVKGRFTISRDNAKNTVYLQMNSLKPEDTAVYYCAADPVFNYDYWGQGTQVTVSS”, the “polyreactivity (PSR sort gate)” value was “low polyreactivity”.

With “QVQLVETGGGLVQAGGSLRLSCAASGSIFYVYAMGWYRQAPRKERELVAAINTSGGSTYADSVKGRFTISRDNAKNTDYLQMNSLKPEDTAVYYCAADGYYEYTWGEYDSWGQGTQVTVSS” the “polyreactivity (PSR sort gate)” value was “low polyreactivity”.

With “QVQLVETGGGLVQAGGSLRLSCAASGSTFESYAMGWYRQAPGKERELVASISRCGGTTFYADSVKVRFTISRDNAKNTVYLQMNSLKPEDTEVYYCAAKRRRLGGDYWGQGTQVTVSS” the “polyreactivity (PSR sort gate)” value was “high polyreactivity”.

With “QVQLVETGGGLVQAGGSLRLSCAASGSTFGTYAMGWDRQAPGKERELVAAISSGDSTTYADSVKGRFTISRDNAKNTVYLQMNSLKPEDTAVYYCAARTFLMRNGGYNYWGQGTQVTVSS” the “polyreactivity (PSR sort gate)” value was “low polyreactivity”.

In the case of “QVQLVETGGGLVQAGGSLRLSCAASGSTFTSNAMGWYRPAPGKERELVAAIDSSDGITYYADSVKGRFTISRDNAKNTVYLQMNSLKPEDTAVYYCAAEDYEAGYDYWGQGTQVTVSS”, the “polyreactivity (PSR sort gate)” value was “high polyreactivity”.

For “QVQLVETGGGLVQAGGSLRLSCAASGSTMAYYTMGWYRQEPGKEREFVASINWGGTTTYYADSVKGRFTISRDNAKNTVYLQMNSLKPEDTAVYYCAALGLRWGRSGYYYEYYYWGQGTQVTVSS”, the “polyreactivity (PSR sort gate)” value was “high polyreactivity”.

With “QVQLVETGGGLVQAGGSLRLSCAASGYTFRYYAMGWYRQAPGKERELVAAISRRGGSTSYADSVKGRFTISRDNAKNTVYLQMNSLKPEDTAVYYCAVYLGGVSPTYGYWGQGTQVTVSS” the “polyreactivity (PSR sort gate)” value was “high polyreactivity”.

For “QVQLVETGGGLVQAGGSLRLSCADSGRIFRYNAMGWYRHAHGKERELVAAITLSTGSTYYADSVKGRFTISRDNAKNTVYLQMNSLKPEDTAVYYCAARIDGRTYARRVYYWGQGTQVTLSS”, the “polyreactivity (PSR sort gate)” value was “high polyreactivity”.

In the case of “QVQLVETGGGLVQAGGSLRLSCAGSGHIFPTNARGWYRQSPWKARELVAVISESVGSTYYADSVKGRFTISRDNSKNTVYLQMNSLKPEDTAVYYCAKQSLYPSLDADYDYWGQGTQVNVSS”, the “polyreactivity (PSR sort gate)” value was “low polyreactivity”.

With “QVQLVETGGGLVQAGGSLRLSCAPSGRTLTYYAMGWYRQAPGKERELVAAIRHSAGSTYYADSVKVRFTISRDNAKNSVYLLMNSLKPEVTAVYYCAKKYYGHRYPSIYDYWGQGTQVTVSS” the “polyreactivity (PSR sort gate)” value was “high polyreactivity”.

With “QVQLVETGGGLVQAGGSLRLSCAPSGSIFRYNAMGWYRQAPGKEREFVAAISQSGSRTYYADSVKGRFTISRDNAKNTVYLQMNSLKPEDTAVYYCAKKYYGVKFYWGQGTQVTVSS” the “polyreactivity (PSR sort gate)” value was “low polyreactivity”.

In the case of “QVQLVETGGGLVQAGGSLRLSCDASGSTFVRYVMGWYRQAPGKERELVAAISRRGGSTYYADSVKGRFTISRANAKNTVYLQMNSLKPEDNAVYYCAGRGGRYFPYHGTIRYDYWGQCTQVTVSS”, the “polyreactivity (PSR sort gate)” value was “high polyreactivity”.

For “QVQLVETGGGLVQAGGSLRLSSAASGRTFAYYAMGWYRQAPGKERELVAAISSGGGSTYYADSVKGRFTISRDNAKNTVYLQMNSVKPEDTAVYYCNKGFNYCGWFKKYGYWGQGTQVTVSS”, the “polyreactivity (PSR sort gate)” value was “high polyreactivity”.

With “QVQLVETGGGLVQEGGSLRISCAASGSLFDVYAMGWYRQAPGKERELVAAISSSGSTYYADSVKGRFTISRDNAKNTVYLQMNSLKTEDTAVYYCAADQADDDDYYYWGQGTQVTVSS” the “polyreactivity (PSR sort gate)” value was “low polyreactivity”.

With “QVQLVETGGRLVQAGGSLRLSCAASGITLPKYAMGWYRPAPGKERELVAAISRSSGRTYYADSVKGRFTISRDNAKNTVYLQMNSLKPEDTAVYYCAASHGGYITRYNYWGQGTQVTVSS” the “polyreactivity (PSR sort gate)” value was “high polyreactivity”.

In the case of “QVQLVETGRGLVQAGGSLRLSCAASGGTFVVYSMGWYRQAPGTERELVAAITWIGDSTYYADSVKRRFTISRDNAKNTVYVQMNSLNPEDTAVYYCNKAKLYLVGRARFQTNYGLYDFWGQVTQVTVSS”, the “polyreactivity (PSR sort gate)” value was “low polyreactivity”.

For “QVQLVETRGGLVQAGGSLRFSCAPSGRISLIYDMGWYRQAPAKERELVASITWSGDSTYYADSVKGRFTNSRDNAKNTVYLQMNSLKPVDTAVYYCAAVCWTYEYWEWYDYWGQVTQVTVSS”, the “polyreactivity (PSR sort gate)” value was “high polyreactivity”.

For “QVQLVETVGGLVQAGGSLRLTCAASGFTIYYNAMGWYRQAPGKERELVASISSNGTSTYYADSVKGRFTISRDNAKNTVYLQMNSLKPEDTAVYYCNVDIFDPRTYDYWGQGTQVTVSS”, the “polyreactivity (PSR sort gate)” value was “low polyreactivity”.

With “QVQLVETVVGLVQAGGSLRLSCAASGSIFGFYDMGWYRQAPGKERELVAVISVSDGSTYYADSVKGRFTISRDNAKNTVYLQMNSLKAEDTAVYYCAATPRGSYGYYYWGQGTQVTVSS” the “polyreactivity (PSR sort gate)” value was “low polyreactivity”.

With “QVQLVGSGGGLVQAGGSLRLSCAASGIIFQLYAMGWYRQAPGKERELVAAITSTGTTNYADSVKGRFTISRDNAKNTVYLQMNCLKPEDTAVYYCNADVGYWWGYYGYDYWGQGTQVTVSS” the “polyreactivity (PSR sort gate)” value was “high polyreactivity”.

For “QVQLVGVRGRLVQAGGSLRLSCAASGRTIYAYAMGWNRQAPRKERELVATITSGGSTNYADSVKGRFTISRDNAMNTFYLLMNSLKPEDTAVYYCGAGPRGYKKYDYWGHGTQVTVSS”, the “polyreactivity (PSR sort gate)” value was “low polyreactivity”.

In the case of “QVQLVHSGGGLVQAGGSLRLSCAASGITIWYYAMGWYRQAPGKERELVAAISWRGGSTYYADSVKGRFTISRDYAKNTVNLQMNSLKPEATAVYYCAAGYSLLYTYEYWGQGTQVTVSS”, the “polyreactivity (PSR sort gate)” value was “high polyreactivity”.

In the case of “QVQLVKSGGGLVQAGGSLRLSCAASGFIIPEYTMGWYRQAPGKERELVAAISGSGGSTYYADSVKGRFTISRDNAKNTVYLQMNSLKPEDTAVYYCAASYAVSRYLQTYAHAHGYWGQGTQVTVSS”, the “polyreactivity (PSR sort gate)” value was “low polyreactivity”.

In the case of “QVQLVKSGGGLVQAGGSLRVSCAATGRIYTDNAMGWYRQATGKERELVAGMSSSGGRTYYADSVKGRFTISRDNAKNSVFFQMNSLLTEATAVYYCAAANSRRDGRYYWGQGTQVSVSS”, the “polyreactivity (PSR sort gate)” value was “high polyreactivity”.

For “QVQLVQSAAGLVHAGGSLRLSCAASGIIFYGYAMVSYRQAPGKERELVAAITSYDGSTYYADSVKGRFTISRDNAKNTVYLQMNSLKPEDTAEYYCAADYSTYEGWYWFDYWGQGSQVTVSS”, the “polyreactivity (PSR sort gate)” value was “high polyreactivity”.

In the case of “QVQLVQSCGGLVQAGGSLRLSCATSGFTFPLYAMGWYRQAPGKERELVAAISSGSSTYYADSVKGRFTISRDNAKNTVYLQMNSLKPEDTAVYYCAAQKRGSPGYRRDYWGQGTQVTVSS”, the “polyreactivity (PSR sort gate)” value was “high polyreactivity”.

In the case of “QVQLVQSGGCLVQAGGSLRLSCSASGSIFVHHDMGWYRQAPGKERELVAAISWGGGRTYYADSVKGRFTISRDNAKNTVYLQMNSLKPEDTAVYYCAVDGGEFSSYGYWGQGTQVTVSS”, the “polyreactivity (PSR sort gate)” value was “low polyreactivity”.

For “QVQLVQSGGGLVHAGGSLRLSCAGSGSIFGTNAMGWYRQAPGKERELVATITSAGSTYYADSVKGRFTISRDYAKITFYLQMNSLKPEDTAVYYCARQATGYVYREYDYWGQGTQVSVSS”, the “polyreactivity (PSR sort gate)” value was “low polyreactivity”.
